Source: patent US12605469B2, “Tumor specific antibody conjugates and uses therefor” (The University of North Carolina at Charlotte, priority 2019, dated 2026)

How the values were obtained:
[1] = target: T1, shed MUC1 (Homo sapiens, UniProt P15941); assay: enzyme immunoassay (EIA) for shed MUC1 in plasma
T1 construct: from tissue; host or cells: human plasma, diluted 1:2 and 1:10
Description: To that end, the ability of TAB-004 to detect levels of shed MUC1 in the plasma of patients was compared to the performances of these antibodies in plasma samples. An enzyme immunoassay (EIA) has been optimized using the TAB-004 antibody to capture and detect levels of shed MUC1 present in circulation. Briefly, a 96-well ELISA plate was coated with 100 μl of TAB-004 antibody at 50 μg/mL in PBS and incubated overnight at 4° C. Following incubation, excess TAB-004 capture antibody was removed from the plate. The plate was blocked with 200 μl of 1% dry milk in PBS to avoid non-specific binding and incubated for 1 hour at 4° C. The plates were washed extensively (3 times) with 250 μl PBS containing 0.05% (v/v) TWEEN®-20 using an ELISA plate washer. A MUC1 standard using a 25-mer polypeptide preparation from MUC1 TR was prepared ranging from 0-2000 U/ml. The test plasma was diluted 1:2, and 1:10 in 0.1% milk in PBS, and 100 μl was added to the appropriate wells in triplicate, and the plates were incubated for 2 hours at 37° C.
Plates were then washed and 100 μl of a polyclonal rabbit anti-MUC1 antibody (Genway) were added at 1:300,000 dilution in 0.1% milk in PBS to each well, and the plate was incubated for 1 hour at 37° C. The polyclonal antibody was washed from the wells and horse radish peroxidase-labeled goat anti-rabbit IgG was added at a 1:1,000 dilution in 0.1% milk in PBS and incubated at 37° C. for 1 hour. After washing the plates, 100 μL of a solution consisting of peroxidase substrate (TMB) was added to the wells, and the plates incubated at room temperature for 30 minutes in the dark. The reaction was stopped by the addition of 25 μl of 4.0 N sulfuric acid, and the optical density read at a wavelength of 450 nm using a SPECTRA-MAX 250 spectrophotometer. Standard curves were generated with regression analyses to determine concentrations of the unknown samples.
Arbitrary units (U)/ml were chosen based on an initial reference standard of MUC1. A linear range was determined to be 50-800 units/ml of MUC1 antigen. […]

[2] = tested on: KCM pancreatic cell line; assay: binding to KCM pancreatic cell line; assay type: cell-based, mouse
From the text: FIG. 3 is a schematic (upper left panel) showing an approach for creating a triple transgenic mouse line that expresses the Cre recombinase throughout the pancreas, a mutated K-ras oncogene polypeptide, and a human MUC1 polypeptide. This mouse develops pancreatic adenocarcinoma, cells of which were used to generate the primary tumor cell line KCM (lower panel). The KCM cell line was used to test the binding of an exemplary antibody of the presently disclosed subject matter (denoted in the Figure as “TAB” and in the instant disclosure as “TAB-004”) either alone or conjugated to CpG oligodeoxynucleotides (CpG ODN).
The TAB-004 antibody alone or conjugated to CpG ODN bound to a tumor cell line (referred to herein as the “KCM” cell line; see FIG. 3) generated from the triple transgenic PDA.MUC1.Tg mice.

T1 sequence (P15941 24-1097 limits assumed): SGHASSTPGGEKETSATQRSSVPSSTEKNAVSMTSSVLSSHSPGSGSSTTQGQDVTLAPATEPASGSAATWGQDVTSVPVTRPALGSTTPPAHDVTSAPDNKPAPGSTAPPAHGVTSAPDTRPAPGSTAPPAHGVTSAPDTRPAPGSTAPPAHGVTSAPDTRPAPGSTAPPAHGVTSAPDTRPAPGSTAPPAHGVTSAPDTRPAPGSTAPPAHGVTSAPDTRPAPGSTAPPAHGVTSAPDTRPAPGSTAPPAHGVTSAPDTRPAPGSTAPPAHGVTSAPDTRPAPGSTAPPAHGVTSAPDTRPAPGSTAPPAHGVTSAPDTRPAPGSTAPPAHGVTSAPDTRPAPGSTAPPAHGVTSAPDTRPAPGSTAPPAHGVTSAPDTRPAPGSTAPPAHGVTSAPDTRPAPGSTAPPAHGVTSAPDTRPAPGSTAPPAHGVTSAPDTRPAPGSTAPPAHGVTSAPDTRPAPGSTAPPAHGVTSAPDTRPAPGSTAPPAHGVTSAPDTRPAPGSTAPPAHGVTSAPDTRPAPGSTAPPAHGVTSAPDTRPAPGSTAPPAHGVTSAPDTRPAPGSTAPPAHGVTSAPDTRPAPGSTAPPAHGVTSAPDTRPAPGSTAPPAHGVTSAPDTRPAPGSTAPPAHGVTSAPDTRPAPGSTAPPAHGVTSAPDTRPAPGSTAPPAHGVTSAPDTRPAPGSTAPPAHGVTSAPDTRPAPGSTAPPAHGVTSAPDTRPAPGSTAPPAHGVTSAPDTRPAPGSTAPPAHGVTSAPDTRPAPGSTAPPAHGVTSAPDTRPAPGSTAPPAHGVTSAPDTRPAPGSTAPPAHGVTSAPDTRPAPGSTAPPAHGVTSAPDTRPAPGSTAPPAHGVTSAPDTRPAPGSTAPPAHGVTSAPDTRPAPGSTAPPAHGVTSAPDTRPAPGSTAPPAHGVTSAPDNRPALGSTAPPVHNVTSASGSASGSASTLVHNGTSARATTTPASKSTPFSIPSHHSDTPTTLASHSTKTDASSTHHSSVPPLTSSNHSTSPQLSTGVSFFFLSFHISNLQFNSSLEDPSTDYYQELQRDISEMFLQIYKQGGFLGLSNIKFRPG

B1: TAB-004: mAb of the IgG isotype produced by hybridoma ATCC PTA-11550; binds tumor-specific epitope of human MUC1 (antibody, V domains shown)
VH: EVQLQQSGGERATPGASVKMSCKTSGYTFTNYWMHWVKQRPGQGLEWIGYINPSSGYTQYNQKFKDKATLTADKSSSTAYIQLSSLTSEDSAVYYCSTYYGDYLFPYWGQGTLVTVSA
VL: DVLMTQTPLSLPVSLGDQASISCRSSQDIVYGNGNTYLEWYLQKPGQSPKLLIYKVSNRFSGVPDRFSGSGSGTDFTLKISRVEAEDLGVYYCFQGSHVPYTFGGGTKLEIKR
- false negatives / positivity of cancer patient plasma ([1]; 36 breast cancer plasma samples for CA15-3): All cancer patient plasma was positive
- stage 2 and stage 3 pancreatic cancer patients above the normal range ([1]; n=5 per stage): all stage 2 and stage 3 patients
- false positive results in normal patients ([1]; n=12 normal, cutoff <40 U/ml TAB-004, <31 U/ml CA15-3): no false positives
- binding to KCM cell line [2]: bound to the KCM pancreatic cell line with equal affinity
